Target: T1, 6His-FrzCD (M. xanthus, UniProt P43500 1-417)
T1 construct: FrzCD, cytoplasmic methyl-accepting chemotaxis protein of the Frz system, Myxococcus xanthus; also called cytoplasmic MCP of the Frz system; source: E. coli BL21(DE3); in lysate (co-purification) and purified on NiNTA resin (BLi)
T1 sequence (looked up): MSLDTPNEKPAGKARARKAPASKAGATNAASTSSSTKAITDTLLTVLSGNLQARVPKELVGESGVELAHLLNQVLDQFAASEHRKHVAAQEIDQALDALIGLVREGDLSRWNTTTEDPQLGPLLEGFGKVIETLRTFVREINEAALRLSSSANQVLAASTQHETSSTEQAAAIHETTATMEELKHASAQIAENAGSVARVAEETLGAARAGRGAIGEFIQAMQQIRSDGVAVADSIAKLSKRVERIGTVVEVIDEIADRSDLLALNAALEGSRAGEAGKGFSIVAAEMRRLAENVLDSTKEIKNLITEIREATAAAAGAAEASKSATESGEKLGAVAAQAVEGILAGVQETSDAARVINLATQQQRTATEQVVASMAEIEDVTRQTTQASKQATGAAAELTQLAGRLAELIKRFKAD
Assay: BLI; BLItz, 25°C; 6His-tagged ligand immobilised on Ni-NTA biosensors at 4 μM; GST-FrzB as analyte at 0.2 to 20 μM; Tris HCl 50 mM pH8, NaCl 300 mM; global 1:1 fit; double reference subtraction
Conditions: both partners purified

Kd: 700 nM
B1: GST-FrzB (natural protein, M. xanthus, UniProt P43499 1-112, looked up)
chain: MDLLFFDIGATLYGTDASQVLRIDRALPEDLTLAELGLPHRGNRAIVFDTPEGEAHLKVDAVHGVRSIPVNSLRRMPPTAGAAAYAVGVCLEEARTVLLIDLVETARTQGRH
notes: FrzB, CheW-like protein of the Frz chemosensory system, Myxococcus xanthus, Uniprot P43499; also called divergent CheW; source: E. coli BL21(DE3)

Reference: publication PMC6952110, “A divergent CheW confers plasticity to nucleoid-associated chemosensory arrays” (PLoS Genetics, 2019)
